Experimental data: the supplement of paper PMC7877785
± gives the uncertainty stated by the source.

Test: self-splicing fitness, log relative to wild type (ln ratio); higher = more splicing; Tetrahymena group I intron in knt gene, E. coli kanamycin selection, DiMSum; sequences stand for … in CUCUCU…GGAGGGAAAAGUUAUCAGGCAUGCACCUGGUAGCUAGUCUUUAAACCAAUAGAUUGCAUCGGUUUAAAAGGCAAGACCGUCAAAUUGCGGGAAAGGGGUCAACAGCCGUUCAGUACCAAGUCUCAGGGGAAACUUUGAGAUGGCCUUGCAAAGGGUAUGGUAAUAAGCUGACGGACAUGGUCCUAACCACGCAGCCAAGUCCUAAGUCAACAGAUCUUCUGUUGAUAUGGAUGCAGUUCACAGACUAAAUGUCGGUCGGGGAAGAUGUAUUCUUCUCAUAAGAUAUAGUCGGACCUCUCCUUAAUGGGAGCUAGCGGAUGAAGUGAUGCAACACUGGAGCCGCUGGGAACUAAUUUGUAUGCGAAAGUAUAUUGAUUAGUUUUGGAGUACUCGUGGUCG
Procedure, shortened: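 Pooled colonies went to amplicon sequencing on an Illumina HiSeq 2500 after six replicate transformations. The plates were LB agar with 100 μg/mL carbenicillin, 50 μM IPTG and 0.2% rhamnose, with or without 25 μg/mL kanamycin, incubated overnight at 37°C or 30°C. The E. coli BL21(DE3) library had all eight P1ex-region intron nucleotides randomised, the intron placed in the knt kanamycin-resistance gene on pET-22b(+). DiMSum fitness is the error-weighted combination of replicate fold changes, kanamycin against none, normalised to wild type.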

Sequence | self-splicing fitness (ln) (30 °C) | self-splicing fitness (ln) (37 °C)
GAUCAGCAAUAUUACGCUUG | -1.02 ± 0.095 | 0.188 ± 0.12
GAUCAGCAAUAUUACGCUUU | -1.02 ± 0.08 | -0.877 ± 0.11
GAUCAGCAAUAUUACGGAUU | -3.32 ± 0.24 | -2.52 ± 0.24
GAUCAGCAAUAUUACGGCGG | -2.43 ± 0.13 | -2.06 ± 0.17
GAUCAGCAAUAUUACGGGCA | -0.237 ± 0.098 | -0.574 ± 0.11
GAUCAGCAAUAUUACGGUCC | -3.7 ± 0.33 | –
GAUCAGCAAUAUUACGGUGA | -0.622 ± 0.069 | -0.422 ± 0.075
GAUCAGCAAUAUUACGGUUA | -0.25 ± 0.066 | 0.171 ± 0.067
GAUCAGCAAUAUUACGUCAA | -1.01 ± 0.1 | -0.615 ± 0.14
GAUCAGCAAUAUUACGUCAG | -4.35 ± 0.43 | -2.43 ± 0.28
GAUCAGCAAUAUUACGUGCC | -1.16 ± 0.13 | -0.652 ± 0.24
GAUGAGCAAUAUUACGACGA | -1.5 ± 0.13 | -1.3 ± 0.15
GAUGAGCAAUAUUACGAGCG | -2.62 ± 0.44 | –
GAUGAGCAAUAUUACGAUGU | -2.63 ± 0.25 | -2.15 ± 0.35
GAUGAGCAAUAUUACGAUUU | -1.07 ± 0.14 | -2.1 ± 0.18
GAUGAGCAAUAUUACGCUCG | -3.02 ± 0.3 | -2.75 ± 0.38
GAUGAGCAAUAUUACGCUUC | -4.04 ± 0.43 | –
GAUGAGCAAUAUUACGGAAU | -3.1 ± 0.23 | -2.66 ± 0.41
GAUGAGCAAUAUUACGGACA | -2.22 ± 0.45 | -3.08 ± 0.47
GAUGAGCAAUAUUACGGAUA | -3.94 ± 0.42 | -2.52 ± 0.26
GAUGAGCAAUAUUACGGCCA | -2.11 ± 0.44 | -0.871 ± 0.24
GAUGAGCAAUAUUACGGCGC | -0.349 ± 0.17 | 0.649 ± 0.25
GAUGAGCAAUAUUACGGGAU | – | -2.36 ± 0.42
GAUGAGCAAUAUUACGGUCG | -2.37 ± 0.12 | -0.405 ± 0.12
GAUGAGCAAUAUUACGGUCU | -3.87 ± 0.37 | -3.34 ± 0.26

Sequence | self-splicing fitness (ln) (30 °C) | self-splicing fitness (ln) (37 °C)
GAUGAGCAAUAUUACGUAGG | -3.76 ± 0.27 | -1.79 ± 0.26
GAUGAGCAAUAUUACGUCUC | -2.96 ± 0.23 | -1.5 ± 0.41
GAUGAGCAAUAUUACGUCUU | -1.41 ± 0.12 | -0.691 ± 0.12
GAUGAGCAAUAUUACGUGAU | -3.66 ± 0.28 | -2.3 ± 0.24
GAUUAGCAAUAUUACGAAAU | -2.4 ± 0.22 | 1.2 ± 0.2
GAUUAGCAAUAUUACGACCU | -0.343 ± 0.13 | -0.777 ± 0.18
GAUUAGCAAUAUUACGAGAG | -3.5 ± 0.25 | -1.83 ± 0.18
GAUUAGCAAUAUUACGAGGU | -3.27 ± 0.18 | -3.89 ± 0.33
GAUUAGCAAUAUUACGAUCA | -0.826 ± 0.21 | -0.493 ± 0.19
GAUUAGCAAUAUUACGCAAC | -3.22 ± 0.26 | -1.89 ± 0.19
GAUUAGCAAUAUUACGCAGC | -2.35 ± 0.31 | –
GAUUAGCAAUAUUACGCAUG | -0.728 ± 0.14 | -0.334 ± 0.17
GAUUAGCAAUAUUACGCGAC | -3.24 ± 0.31 | -2.32 ± 0.23
GAUUAGCAAUAUUACGCGCU | – | -1.92 ± 0.4
GAUUAGCAAUAUUACGCUUG | -0.829 ± 0.079 | -0.445 ± 0.093
GAUUAGCAAUAUUACGGAAC | -2.84 ± 0.36 | -1.7 ± 0.33
GAUUAGCAAUAUUACGGACG | -0.885 ± 0.19 | 0.241 ± 0.16
GAUUAGCAAUAUUACGGCAA | -0.324 ± 0.15 | -0.0501 ± 0.18
GAUUAGCAAUAUUACGGCGC | 0.24 ± 0.072 | 0.233 ± 0.084
GAUUAGCAAUAUUACGGCUA | -0.867 ± 0.099 | -0.414 ± 0.1
GAUUAGCAAUAUUACGGGCU | -2.8 ± 0.15 | -1.28 ± 0.12
GAUUAGCAAUAUUACGGUGA | -1.31 ± 0.11 | -1.24 ± 0.098
GAUUAGCAAUAUUACGGUUA | -0.842 ± 0.14 | 0.0704 ± 0.15
GAUUAGCAAUAUUACGUAAC | -1.94 ± 0.17 | 0.224 ± 0.14
GAUUAGCAAUAUUACGUACC | -1.71 ± 0.22 | 0.563 ± 0.21

Sequence | self-splicing fitness (ln) (30 °C) | self-splicing fitness (ln) (37 °C)
GAUUAGCAAUAUUACGUCUG | -2.47 ± 0.23 | -1.19 ± 0.16
GAUUAGCAAUAUUACGUGAA | -3.07 ± 0.17 | -1.48 ± 0.14
GAUUAGCAAUAUUACGUGUA | -2.22 ± 0.13 | -1.63 ± 0.14
GAUUAGCAAUAUUACGUUAG | -2.09 ± 0.32 | -2.4 ± 0.45
GAUUAGCAAUAUUACGUUGG | -4.17 ± 0.27 | -2.16 ± 0.18
GAUUAGCAAUAUUACGUUUU | -3.88 ± 0.28 | -1.59 ± 0.16
GCAAAGCAAUAUUACGAACG | -1.46 ± 0.077 | -0.561 ± 0.11
GCAAAGCAAUAUUACGAAUG | -3.4 ± 0.15 | -1.77 ± 0.12
GCAAAGCAAUAUUACGACAC | -0.783 ± 0.099 | -0.461 ± 0.13
GCAAAGCAAUAUUACGAGGA | -2.49 ± 0.13 | -1.83 ± 0.14
GCAAAGCAAUAUUACGAUGU | -2.89 ± 0.15 | -1.93 ± 0.17
GCAAAGCAAUAUUACGCCAG | -2.38 ± 0.15 | -3.19 ± 0.29
GCAAAGCAAUAUUACGCCUC | -2.69 ± 0.12 | -1.86 ± 0.16
GCAAAGCAAUAUUACGCGCA | -0.918 ± 0.096 | -0.0967 ± 0.092
GCAAAGCAAUAUUACGGAAC | -1.63 ± 0.18 | -0.635 ± 0.17
GCAAAGCAAUAUUACGGCGA | -0.683 ± 0.067 | -0.115 ± 0.084
GCAAAGCAAUAUUACGGGAU | -1.93 ± 0.067 | -0.98 ± 0.097
GCAAAGCAAUAUUACGGGGC | -4.05 ± 0.34 | -3.13 ± 0.31
GCAAAGCAAUAUUACGGGUG | -1.23 ± 0.047 | -1.23 ± 0.057
GCAAAGCAAUAUUACGGUCA | -1.12 ± 0.083 | -0.197 ± 0.087
GCAAAGCAAUAUUACGUACA | -1.31 ± 0.11 | -0.858 ± 0.13
GCAAAGCAAUAUUACGUGAG | -1.11 ± 0.046 | -0.539 ± 0.067
GCAAAGCAAUAUUACGUUAG | -3.02 ± 0.13 | -1.82 ± 0.14
GCACAGCAAUAUUACGAAAA | -1.7 ± 0.1 | -1.09 ± 0.12
GCACAGCAAUAUUACGAAUG | -1.89 ± 0.051 | -1.09 ± 0.063

Sequence | self-splicing fitness (ln) (30 °C) | self-splicing fitness (ln) (37 °C)
GCACAGCAAUAUUACGACAG | -2.97 ± 0.25 | -1.8 ± 0.23
GCACAGCAAUAUUACGACAU | -0.894 ± 0.011 | -0.217 ± 0.032
GCACAGCAAUAUUACGACCC | 0.615 ± 0.18 | 0.472 ± 0.25
GCACAGCAAUAUUACGAGCU | -2.63 ± 0.11 | -1.07 ± 0.1
GCACAGCAAUAUUACGAUAU | -0.993 ± 0.056 | -0.54 ± 0.071
GCACAGCAAUAUUACGCAAC | -2.31 ± 0.17 | -1.03 ± 0.19
GCACAGCAAUAUUACGCAAU | -1.14 ± 0.1 | -0.864 ± 0.087
GCACAGCAAUAUUACGCCCA | -1.72 ± 0.27 | -0.754 ± 0.24
GCACAGCAAUAUUACGCCGU | -1.51 ± 0.1 | 0.145 ± 0.14
GCACAGCAAUAUUACGCCUC | -0.836 ± 0.065 | -0.337 ± 0.074
GCACAGCAAUAUUACGCGAG | -2.41 ± 0.092 | -0.669 ± 0.084
GCACAGCAAUAUUACGCUUA | -0.908 ± 0.065 | -0.871 ± 0.062
GCACAGCAAUAUUACGGAUC | -0.505 ± 0.053 | -0.336 ± 0.061
GCACAGCAAUAUUACGGCAU | -1.59 ± 0.095 | -0.16 ± 0.091
GCACAGCAAUAUUACGGCGA | -1.16 ± 0.083 | -0.758 ± 0.095
GCACAGCAAUAUUACGGCGG | -3.29 ± 0.19 | -2.78 ± 0.25
GCACAGCAAUAUUACGGGAU | -1.01 ± 0.073 | -1.02 ± 0.087
GCACAGCAAUAUUACGGGGG | -1.97 ± 0.088 | -0.472 ± 0.08
GCACAGCAAUAUUACGUAAU | 0.164 ± 0.059 | -0.0143 ± 0.064
GCACAGCAAUAUUACGUAGA | -0.215 ± 0.049 | 0.62 ± 0.066
GCACAGCAAUAUUACGUCGC | -3.17 ± 0.13 | -1.67 ± 0.12
GCACAGCAAUAUUACGUUAG | -2.6 ± 0.091 | -1.85 ± 0.11
